Assay results: US20260193348A1 (ANTENGENE BIOLOGICS, published 2026)
Substitutions are numbered along the chain they refer to. Numbers in names are those of the source. One block for each binder: values may come before it.

Assays:
[1] = target: T1, GPRC5D (G-protein coupled receptor family C group 5 member D), human, on multiple myeloma cell lines (human, UniProt Q9NZD1 1-345); assay: cell-based or functional assay
[2] = target: T1, GPRC5D (G-protein coupled receptor …); assay: cell-based or functional assay; remark: listed apart in the source
[3] = target: T2, CD3 (Cluster of Differentiation 3 protein), human, on T cells / Jurkat cells (human, UniProt P07766 23-207; P04234 22-171; P09693 23-182); assay: FACS, Jurkat cells, antibody at 50 µg/ml
T2 construct: whole, on cells; part of the TCR-CD3 complex; also called human CD3
Procedure: (§1) The binding affinities of the generated humanized Fab-scFv-Fab bispecific antibodies were determined by FACS analysis. […] (a) Jurkat cells were washed by Staining Buffer (PBS+1% BSA) in round bottom 96-well plate. [0833] (b) Antibody dilutions and cells were added to each well, incubated at 4 degrees for 1 hour. [0834] (c) Cells were spined down at 300 g for 3 minutes, and the supernatants were discarded. [0835] (d) Cells were washed with Staining Buffer. […] (e) Step (d) was repeated and the cells were incubated for 0.5 hours at 4 degrees with secondary antibody in Staining Buffer. [0837] (f) After incubation, step (d)-(e) were repeated. […] (g) Staining Buffer was added and fluorescence signals were recorded by flow cytometry.

GPRC5D on MM.1S cells [4] = target: T3, GPRC5D on MM.1S cells (human, UniProt Q9NZD1 1-345); assay: cell-based or functional assay
CD3 on Jurkat cells = target: T4, CD3 on Jurkat cells (UniProt P07766 23-207; P04234 22-171; P09693 23-182); assay: FACS on Jurkat cells
T4 construct: whole, on cells; On the cell, CD3 stands in the TCR-CD3 complex; also called cluster of differentiation 3
Procedure: as §1
The binding affinities of the generated humanized Fab-scFv-Fab bispecific antibodies were determined by FACS analysis. The protocol for FACS analysis is identical to that described in Example 3.2, except that different test antibodies were used.

GPRC5D on MM.1S cells [5] = target: T3, GPRC5D on MM.1S cells; assay: FACS on MM.1S cells
Procedure: To evaluate the binding affinity of the generated chimeric bispecific antibody to T cells, the isolated CD3⁺ T cells were stained by antibodies and the binding affinity was determined by FACS analysis. The protocol of FACS analysis is described as follows: [0785] (a) CD3⁺ T cells were isolated from normal donors. [0786] (b) The isolated CD3⁺ T cells were washed by Staining Buffer (PBS+1% BSA) in round bottom 96-well plate. […] (c) Antibody dilutions were added to each well and mixed with the CD3+ T cells, incubated at 4 degrees for 1 hour. […] (d) Cells were spined at 300 g for 3 minutes, then the supernatants were discarded. [0789] (e) Cells were washed with Staining Buffer. [0790] (f) Step (d) was repeated, and the cells were incubated with secondary antibody in Staining Buffer for 0.5 hours at 4 degrees. [0791] (g) After incubation, step (d)-(e) were repeated. [0792] (h) Cells were resuspended in Staining Buffer and fluorescence signals were recorded by flow cytometry.
The binding affinities of the generated humanized Fab-scFv-Fab bispecific antibodies to MM.1S were evaluated by FACS analysis. The protocol for FACS analysis is identical to that described in Example 1.2, except that MM.1S were used in this example.

GPRC5D on MM.1S cells [6] = target: T3, GPRC5D on MM.1S cells; assay: cell-based or functional assay; remark: listed apart in the source

T3 sequence (Q9NZD1 whole entry): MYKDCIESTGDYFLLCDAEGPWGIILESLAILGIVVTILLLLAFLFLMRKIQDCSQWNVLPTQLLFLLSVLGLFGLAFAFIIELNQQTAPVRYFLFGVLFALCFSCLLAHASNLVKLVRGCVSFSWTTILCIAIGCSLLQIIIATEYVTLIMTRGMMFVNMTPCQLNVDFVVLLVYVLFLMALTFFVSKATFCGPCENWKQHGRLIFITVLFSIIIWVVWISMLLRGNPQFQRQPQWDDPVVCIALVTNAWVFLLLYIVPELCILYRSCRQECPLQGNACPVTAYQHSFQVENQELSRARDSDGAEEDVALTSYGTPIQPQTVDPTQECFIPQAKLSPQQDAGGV
T1 sequence (Q9NZD1 whole entry): as above
T4 sequence (P07766 23-207, chain 1 of 3): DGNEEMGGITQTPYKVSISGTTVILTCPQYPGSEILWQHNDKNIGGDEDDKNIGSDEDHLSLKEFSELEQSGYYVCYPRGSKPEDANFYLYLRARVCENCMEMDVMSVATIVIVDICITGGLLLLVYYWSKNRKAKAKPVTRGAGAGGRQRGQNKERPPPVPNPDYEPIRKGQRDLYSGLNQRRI
T4 sequence (P04234 22-171, chain 2 of 3): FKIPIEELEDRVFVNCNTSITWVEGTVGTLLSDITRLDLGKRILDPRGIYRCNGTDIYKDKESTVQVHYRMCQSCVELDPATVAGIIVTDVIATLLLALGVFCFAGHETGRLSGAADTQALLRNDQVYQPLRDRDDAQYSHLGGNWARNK
T4 sequence (P09693 23-182, chain 3 of 3): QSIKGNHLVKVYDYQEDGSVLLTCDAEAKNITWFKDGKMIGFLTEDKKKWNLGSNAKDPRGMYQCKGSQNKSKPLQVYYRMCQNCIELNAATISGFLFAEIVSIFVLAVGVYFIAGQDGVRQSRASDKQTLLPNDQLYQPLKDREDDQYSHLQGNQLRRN
T2 sequence (P07766 23-207, chain 1 of 3): as the sequence (P07766 23-207, chain 1 of 3) above
T2 sequence (P04234 22-171, chain 2 of 3): as the sequence (P04234 22-171, chain 2 of 3) above
T2 sequence (P09693 23-182, chain 3 of 3): as the sequence (P09693 23-182, chain 3 of 3) above

B2: Bis-40E9-L2H3 (bispecific antibody, human IgG1, kappa, L234A L235A)
heavy 1: not shown
heavy 2: EVQLVQSGAEVKKPGASVKVSCKASGYTFTSYVIHWVRQAPGQGLEWMGYFNPYNDGTKYNEEFKGRVTLTSDKSTSTAYMELRSLRSDDTAVYYCARGGVRRYFDVWGQGTTVTVSSASTKGPSVFPLAPSSKSTSGGTAALGCLVKDYFPEPVTVSWNSGALTSGVHTFPAVLQSSGLYSLSSVVTVPSSSLGTQTYICNVNHKPSNTKVDKKVEPKSCGGGGSGGGGSEVQLVQSGAEVKKPGSSVKVSCKASGYTFSSYVIHWVRQAPGQCLEWMGYINPYNDVIKYNEKFKGRVTLTSDKSTSTAYMELSSLRSEDTAVYYCARDSYYSYDGFAYWGQGTLVTVSSGGGGSGGGGSGGGGSGGGGSEIVLTQSPDFQSVTPKEKVTITCSASSSVSYMHWYQQKPDQSPKRLIYDTSKLASGVPSRFSGSGSGTDFTLTINSLEAEDAATYYCQQWSSNPPTFGCGTKVEIKGGGGSGGGGSDKTHTCPPCPAPEAAGGPSVFLFPPKPKDTLMISRTPEVTCVVVDVSHEDPEVKFNWYVDGVEVHNAKTKPREEQYNSTYRVVSVLTVLHQDWLNGKEYKCKVSNKALPAPIEKTISKAKGQPREPQVCTLPPSREEMTKNQVSLSCAVKGFYPSDIAVEWESNGQPENNYKTTPPVLDSDGSFFLVSKLTVDKSRWQQGNVFSCSVMHEALHNHYTQKSLSLSPGK
light: DIQMTQSPSSLSASVGDRVTITCRASQDIGSNLNWLQQKPGKAIKRLIYATFGLDSGVPSRFSGSRSGTDFTLTISSLQPEDFATYYCQQYASFPYTFGGGTKVEIKRTVAAPSVFIFPPSDEQLKSGTASVVCLLNNFYPREAKVQWKVDNALQSGNSQESVTEQDSKDSTYSLSSTLTLSKADYEKHKVYACEVTHQGLSSPVTKSFNRGEC
- Ratio of EC50 (relative to ATG-Bis-40E9), luciferase assay on MM.1S (GPRC5D on MM.1S cells [4]): 3.25 ratio
- Ratio of Top RLU (relative to ATG-Bis-40E9), luciferase assay on MM.1S (GPRC5D on MM.1S cells [4]): 1.09 ratio
- Ratio of EC50 (relative to ATG-Bis-40E9) (CD3 on Jurkat cells): 1.65 ratio
- Ratio of Top MFI (relative to ATG-Bis-40E9) (CD3 on Jurkat cells): 0.77 ratio
- Ratio of EC50 (relative to ATG-Bis-40E9) (GPRC5D on MM.1S cells [5]): 1.19 ratio
- Ratio of Top MFI (relative to ATG-Bis-40E9) (GPRC5D on MM.1S cells [5]): 0.997 ratio
- Ratio of IC50 (relative to ATG-Bis-40E9), MM.1S cytotoxicity (GPRC5D on MM.1S cells [6]): 0.23 ratio
- Ratio of Top cytotoxicity (relative to ATG-Bis-40E9), MM.1S cytotoxicity (GPRC5D on MM.1S cells [6]): 1.04 ratio

B3: Bis-40E9-L2H7 (bispecific antibody)
heavy 1: not shown
heavy 2: B2 heavy 2 with Y285G, D287G, Y333S
light: B2 light
notes: Fab-scFv-Fab format with LALA mutations
- Ratio of EC50 (relative to ATG-Bis-40E9), luciferase assay on MM.1S (GPRC5D on MM.1S cells [4]): 2.79 ratio
- Ratio of Top RLU (relative to ATG-Bis-40E9), luciferase assay on MM.1S (GPRC5D on MM.1S cells [4]): 0.85 ratio
- Ratio of EC50 (relative to ATG-Bis-40E9) (CD3 on Jurkat cells): 1.24 ratio
- Ratio of Top MFI (relative to ATG-Bis-40E9) (CD3 on Jurkat cells): 0.68 ratio
- Ratio of EC50 (relative to ATG-Bis-40E9) (GPRC5D on MM.1S cells [5]): 2.5 ratio
- Ratio of Top MFI (relative to ATG-Bis-40E9) (GPRC5D on MM.1S cells [5]): 1.25 ratio
- Ratio of IC50 (relative to ATG-Bis-40E9), MM.1S cytotoxicity (GPRC5D on MM.1S cells [6]): 3.21 ratio
- Ratio of Top cytotoxicity (relative to ATG-Bis-40E9), MM.1S cytotoxicity (GPRC5D on MM.1S cells [6]): 0.98 ratio

B4: Bis-40E9-L2H14 (bispecific antibody)
heavy 1: not shown
heavy 2: B2 heavy 2 with D330E
light: B2 light
notes: Fab-scFv-Fab format with LALA mutations; copies: 1 + 1 + 2
- Ratio of EC50 (relative to ATG-Bis-40E9), luciferase assay on MM.1S (GPRC5D on MM.1S cells [4]): 5.77 ratio
- Ratio of Top RLU (relative to ATG-Bis-40E9), luciferase assay on MM.1S (GPRC5D on MM.1S cells [4]): 0.81 ratio
- Ratio of EC50 (relative to ATG-Bis-40E9) (CD3 on Jurkat cells): 2.31 ratio
- Ratio of Top MFI (relative to ATG-Bis-40E9) (CD3 on Jurkat cells): 0.83 ratio
- Ratio of EC50 (relative to ATG-Bis-40E9) (GPRC5D on MM.1S cells [5]): 1.02 ratio
- Ratio of Top MFI (relative to ATG-Bis-40E9) (GPRC5D on MM.1S cells [5]): 0.975 ratio
- Ratio of IC50 (relative to ATG-Bis-40E9), MM.1S cytotoxicity (GPRC5D on MM.1S cells [6]): 10.4 ratio
- Ratio of Top cytotoxicity (relative to ATG-Bis-40E9), MM.1S cytotoxicity (GPRC5D on MM.1S cells [6]): 0.98 ratio

The next lines start with results.

- EC50 (nM), luciferase assay, MM.1S [2]: 0.0898 nM
- Top (RLU), luciferase assay, MM.1S [2]: 1940 RLU
- Top (RLU), luciferase assay, MOLP-8 [2]: 221 RLU
- MFI (50 µg/ml) [3]: 341 MFI
B1: Bis-40E9-L2H3 (bispecific antibody, human IgG1, kappa, L234A L235A)
heavy 1: not shown
heavy 2: B2 heavy 2
light: B2 light
notes: Fab-scFv-Fab, LALA; also called humanized 2+1 bispecific antibody with scFv 40E9-L2H3
- IC50 (nM), T-Cell Dependent Cytotoxicity, MM.1S [1]: 0.00571 nM
- IC50 (nM), T-Cell Dependent Cytotoxicity, MOLP-8 [1]: 0.00166 nM
- IC50 (nM), T-Cell Dependent Cytotoxicity, RPMI8226 [1]: 0.06 nM
- Top (%), T-Cell Dependent Cytotoxicity, MM.1S [1]: 66.8%
- Top (%), T-Cell Dependent Cytotoxicity, MOLP-8 [1]: 71.9%
- Top (%), T-Cell Dependent Cytotoxicity, RPMI8226 [1]: 11.5%

- Ratio of EC50 (relative to ATG-Bis-40E9), luciferase assay on MM.1S (GPRC5D on MM.1S cells [4]): 4.89 ratio
- Ratio of Top RLU (relative to ATG-Bis-40E9), luciferase assay on MM.1S (GPRC5D on MM.1S cells [4]): 1.57 ratio
- Ratio of EC50 (relative to ATG-Bis-40E9) (CD3 on Jurkat cells): 13.6 ratio
- Ratio of EC50 (relative to ATG-Bis-40E9) (GPRC5D on MM.1S cells [5]): 1.27 ratio
- Ratio of Top MFI (relative to ATG-Bis-40E9) (GPRC5D on MM.1S cells [5]): 0.954 ratio
B5: Bis-40E9-L2H3-Y101F.H (bispecific antibody)
heavy 1: not shown
heavy 2: B2 heavy 2 with Y332F
light: B2 light
notes: as for B3
- Ratio of IC50 (relative to ATG-Bis-40E9), MM.1S cytotoxicity (GPRC5D on MM.1S cells [6]): 1.94 ratio
- Ratio of Top cytotoxicity (relative to ATG-Bis-40E9), MM.1S cytotoxicity (GPRC5D on MM.1S cells [6]): 1.03 ratio
